Columns and labels:
[1] = target: T1, nLuc-AFF (6*-50* duplication, 6-aa linker AAGASS) (UniProt P03069 226-281); experiment: luminescence switching
[2] = target: T1, nLuc-AFF (6*-50* duplication, 6-aa …); experiment: fluorescence anisotropy
[3] = target: T1, nLuc-AFF (6*-50* duplication, 6-aa …); experiment: luminescence ratio L460/L520 titration
[4] = target: T1, nLuc-AFF (6*-50* duplication, 6-aa …); experiment: luminescence ratio L460/L520 titration; remark: listed apart in the source

T1 sequence (P03069 226-281): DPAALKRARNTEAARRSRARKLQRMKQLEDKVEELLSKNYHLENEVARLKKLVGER

B1: NC duplex (non-consensus) (dsDNA)
DNA 1: GTTCCAGGTTAAGAAGTGCTCTCAGGGTGGCGCGGC
DNA 2: GCCGCGCCACCCTGAGAGCACTTCTTAACCTGGAAC
B1: no binding [1].

B2: AP-1 duplex (dsDNA)
DNA 1: AGTGGAGATGACTCATCTCGTGC
DNA 2: GCACGAGATGAGTCATCTCCACT
With B2 the Kd [2] was 11.6 ± 2.5 nM, the Kd [3] was 37 ± 11 nM and the Kd [4] was 14.3 ± 3.5 nM.
